One block for each binder: values may come before it.
Key:
[1] = molecular target: T1, CD19 on tumor cells (Raji, Raji-Luc, NALM6, Reh) (human, UniProt P15391 20-556); assay: flow cytometry on CD19-positive Raji cells
T1 construct: whole, on cells; also called CD19-positive tumor cells Raji
T1 sequence (looked up): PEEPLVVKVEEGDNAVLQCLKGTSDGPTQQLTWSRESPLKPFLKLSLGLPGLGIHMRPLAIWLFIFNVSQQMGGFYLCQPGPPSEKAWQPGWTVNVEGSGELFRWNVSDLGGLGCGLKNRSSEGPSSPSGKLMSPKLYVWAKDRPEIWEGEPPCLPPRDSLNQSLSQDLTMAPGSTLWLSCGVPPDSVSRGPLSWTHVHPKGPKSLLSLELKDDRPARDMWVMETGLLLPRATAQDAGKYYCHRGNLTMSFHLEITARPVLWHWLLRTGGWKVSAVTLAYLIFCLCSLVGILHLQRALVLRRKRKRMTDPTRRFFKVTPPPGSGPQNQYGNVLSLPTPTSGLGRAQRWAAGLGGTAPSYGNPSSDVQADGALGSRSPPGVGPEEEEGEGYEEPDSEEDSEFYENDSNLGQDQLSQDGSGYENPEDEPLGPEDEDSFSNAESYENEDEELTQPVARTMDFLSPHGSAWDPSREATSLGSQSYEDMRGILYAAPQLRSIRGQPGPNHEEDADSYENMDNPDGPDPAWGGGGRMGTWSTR

[2] = molecular target: T1, CD19 on tumor cells (Raji, Raji-Luc, …); assay: FACS on CD19-positive Raji cells, AF647 goat anti-human IgG [left panel]
[3] = molecular target: T1, CD19 on tumor cells (Raji, Raji-Luc, …); assay: cell-based or functional assay
[4] = molecular target: T1, CD19 on tumor cells (Raji, Raji-Luc, …); assay: cell-based or functional assay; remark: listed apart in the source
[5] = molecular target: T2, CD3 on cynomolgus monkey T cells (CIK cells, primary T cells) (cynomolgus monkey, UniProt Q95LI5 22-198); assay: flow cytometry on cynomolgus monkey CIK/T cells
T2 construct: whole, on cells; also called cynomolgus monkey CIK cell membrane CD3

[6] = molecular target: T1, CD19 on tumor cells (Raji, Raji-Luc, …); assay: cell-based or functional assay; remark: listed apart in the source
[7] = molecular target: T1, CD19 on tumor cells (Raji, Raji-Luc, …); assay: cell-based or functional assay; remark: listed apart in the source
CD20 on Raji cells [8] = molecular target: T3, CD20 on Raji cells (human, UniProt P11836 1-297); assay: cell-based or functional assay
T3 sequence (looked up): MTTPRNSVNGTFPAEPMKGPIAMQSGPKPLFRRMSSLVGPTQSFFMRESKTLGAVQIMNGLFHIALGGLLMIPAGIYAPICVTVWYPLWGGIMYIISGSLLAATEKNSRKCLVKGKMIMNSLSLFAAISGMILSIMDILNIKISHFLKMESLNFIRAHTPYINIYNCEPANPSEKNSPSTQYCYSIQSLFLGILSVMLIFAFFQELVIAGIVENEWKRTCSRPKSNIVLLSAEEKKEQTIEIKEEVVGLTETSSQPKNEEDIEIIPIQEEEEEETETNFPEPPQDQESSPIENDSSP

CD20 on Raji cells [9] = molecular target: T3, CD20 on Raji cells; assay: flow cytometry on CD20-positive Raji cells
[10] = molecular target: T2, CD3 on cynomolgus monkey T cells (CIK …); assay: flow cytometry on cynomolgus monkey primary T cells

T2 sequence (Q95LI5 22-198): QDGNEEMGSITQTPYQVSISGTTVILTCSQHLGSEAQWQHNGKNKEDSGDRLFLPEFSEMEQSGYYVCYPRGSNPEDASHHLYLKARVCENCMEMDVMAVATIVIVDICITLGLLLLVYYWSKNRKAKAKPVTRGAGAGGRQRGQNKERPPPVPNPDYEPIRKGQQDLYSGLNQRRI

EC50 [1]: 1.39 nM
EC50 (read off the curve) [2]: ~1 nM
EC50 [5]: ~5.5 nM
EC50 of activation of Jurkat T cells with NFAT RE reporter in the presence of Raji target cells [6]: 1.08 nM
B1: Bispecific antibody AB1K2 (Anti-CD19×CD3, scFv1-scFv2-Fc) (bispecific antibody)
chain: QVQLQESGPGLVKPSQTLSLTCTVSGGSISTSGMGVGWIRQHPGKGLEWIGHIWWDDDKRYNPALKSRVTISVDTSKNQFSLKLSSVTAADTAVYYCARMELWSYYFDYWGQGTLVTVSSGGGGSGGGGSGGGGSEIVLTQSPATLSLSPGERATLSCSASSSVSYMHWYQQKPGQAPRLLIYDTSKLASGIPARFSGSGSGTDFTLTISSLEPEDVAVYYCFQGSVYPFTFGQGTKLEIKGGGGGGSGGGGSGGGGSSSSSKAPPPSEVQLLESGGGLVQPGGSLKLSCAASGFTFNTYAMNWVRQAPGKGLEWVARIRSKYNNYATYYADSVKDRFTISRDDSKNTAYLQMNNLKTEDTAVYYCVRHGNFGNSYVSWFAYWGQGTLVTVSSGGGGSGGGGSGGGGSELVVTQEPSLTVSPGGTVTLTCRSSTGAVTTSNYANWVQQKPGQAPRGLIGGTNKRAPGTPARFSGSLLGGKAALTLSGVQPEDEAEYYCALWYSNLWVFGGGTKLTVLDKTHTCPPCPAPEAAGGPSVFLFPPKPKDQLMISRTPEVTCVVVDVSHEDPEVKFNWYVDGVEVHNAKTKPREEQYASTYRVVSVLTVLHQDWLNGKEYKCKVSNKALPASIEKTISKAKGQPREPQVYTLPPSRDELTKNQVSLTCLVKGFYPSDIAVEWESNGQPENNYKTTPPVLDSDGSFFLYSKLTVDKSRWQQGNVFSCSVLHEALHNHYTQKSLSLSPG
EC50 of CIK-mediated killing of Reh cells [3]: 0.00171 nM
EC50 of PBMC-mediated killing of Raji-LUC cells [4]: 0.00123 nM
EC50 of PBMC-mediated killing of Raji-LUC cells, second row [4]: 0.00125 nM
EC50 of CIK-mediated killing of Raji-LUC cells [7]: 0.000699 nM
EC50 of CIK-mediated killing of Raji-LUC cells, second row [7]: 0.000202 nM

EC50 of activation of Jurkat NFATRE Luc reporter cells in the presence of CD20-positive Raji cells (CD20 on Raji cells [8]): 0.201 µg/mL
EC50 (CD20 on Raji cells [9]): ~70 nM
B2: Bispecific antibody AB2K (Anti-CD20×CD3, scFv1-scFv2-Fc) (bispecific antibody)
chain: QVQLQQPGAELVKPGASVKMSCKASGYTFTSYNMHWVKQTPGRGLEWIGAIYPGNGDTSYNQKFKGKATLTADKSSSTAYMQLSSLTSEDSAVYYCARSTYYGGDWYFNVWGAGTTVTVSAGGGGSGGGGSGGGGSQIVLSQSPAILSASPGEKVTMTCRASSSVSYIHWFQQKPGSSPKPWIYATSNLASGVPVRFSGSGSGTSYSLTISRVEAEDAATYYCQQWTSNPPTFGGGTKLEIKGGGGGGSGGGGSGGGGSSSSSKAPPPSEVQLLESGGGLVQPGGSLKLSCAASGFTFNTYAMNWVRQAPGKGLEWVARIRSKYNNYATYYADSVKDRFTISRDDSKNTAYLQMNNLKTEDTAVYYCVRHGNFGNSYVSWFAYWGQGTLVTVSSGGGGSGGGGSGGGGSELVVTQEPSLTVSPGGTVTLTCRSSTGAVTTSNYANWVQQKPGQAPRGLIGGTNKRAPGTPARFSGSLLGGKAALTLSGVQPEDEAEYYCALWYSNLWVFGGGTKLTVLDKTHTCPPCPAPEAAGGPSVFLFPPKPKDQLMISRTPEVTCVVVDVSHEDPEVKFNWYVDGVEVHNAKTKPREEQYASTYRVVSVLTVLHQDWLNGKEYKCKVSNKALPASIEKTISKAKGQPREPQVYTLPPSRDELTKNQVSLTCLVKGFYPSDIAVEWESNGQPENNYKTTPPVLDSDGSFFLYSKLTVDKSRWQQGNVFSCSVLHEALHNHYTQKSLSLSPG
EC50 of CIK-mediated killing of Raji-luc cells (luciferase) (CD20 on Raji cells [8]): 0.0428 µg/mL

B3: Bispecific antibody AB11K (Anti-Mucin1×CD3, scFv1-scFv2-Fc) (bispecific antibody)
chain: EVQLVESGGGLVQPGGSMRLSCVASGFPFSNYWMNWVRQAPGKGLEWVGEIRLKSNNYTTHYAESVKGRFTISRDDSKNSLYLQMNSLKTEDTAVYYCTRHYYFDYWGQGTLVTVSSGGGGSGGGGSGGGGSDIVMTQSPLSNPVTPGEPASISCRSSKSLLHSNGITYFFWYLQKPGQSPQLLIYQMSNLASGVPDRFSGSGSGTDFTLRISRVEAEDVGVYYCAQNLELPPTFGQGTKVEIKGGGGGGSGGGGSGGGGSSSSSKAPPPSEVQLLESGGGLVQPGGSLKLSCAASGFTFNTYAMNWVRQAPGKGLEWVARIRSKYNNYATYYADSVKDRFTISRDDSKNTAYLQMNNLKTEDTAVYYCVRHGNFGNSYVSWFAYWGQGTLVTVSSGGGGSGGGGSGGGGSELVVTQEPSLTVSPGGTVTLTCRSSTGAVTTSNYANWVQQKPGQAPRGLIGGTNKRAPGTPARFSGSLLGGKAALTLSGVQPEDEAEYYCALWYSNLWVFGGGTKLTVLDKTHTCPPCPAPEAAGGPSVFLFPPKPKDQLMISRTPEVTCVVVDVSHEDPEVKFNWYVDGVEVHNAKTKPREEQYASTYRVVSVLTVLHQDWLNGKEYKCKVSNKALPASIEKTISKAKGQPREPQVYTLPPSRDELTKNQVSLTCLVKGFYPSDIAVEWESNGQPENNYKTTPPVLDSDGSFFLYSKLTVDKSRWQQGNVFSCSVLHEALHNHYTQKSLSLSPG
EC50 [10]: 10 nM

Reference: patent publication US20210371526A1 (AMPSOURCE BIOPHARMA SHANGHAI, published 2021)
